The subject of the test is hES cells. Kind of test: Embryoid body differentiation of hES cells, visual scoring of beating EBs. It counts as cell-based, human. Particulars: growth factor 10 ng/ml added to END2-CM, day 12, compared to END2-CM alone. The method, then:
This procedure describes the formation of embryoid bodies (EB) from collagenase-derived hES cell cultures. After formation the EBs were then exposed to END2 conditioned medium (CM).
Enzymatically passaged hES cells grown on feeder cells were washed once with PBS^+ and treated with Collagenase IV (1 mg/ml) for 3-4 min at 37° C. The Collagenase IV solution was replaced by DMEM and the cells were mechanically dissociated with a pipette tip. Cells were then harvested using a cell scraper and the cell suspension was transferred to a 50 ml tube (Falcon). Cell clumps were collected by gravity and the supernatant was aspirated. Cells were resuspended in fresh DMEM medium aiming to uniformly disperse the cell clumps in the suspension. An equal volume of the cell suspension was then transferred to ultra low attachment plates (Costar). […]
In suspension culture, EBs are formed in ultra low attachment plates in SF medium over night. […] Usually, cells were cultured over a period of 12-13 days before the visual analysis of the proportion of beating EBs under a microscope was performed followed by cell collection for additional readouts. Multiple beating areas on single EBs were not counted separately. Values are expressed as a percentage of contracting EBs compared to […] in a single well of a 6-well tray. […] An average value per well was calculated and presented.

B1: Bmp6: recombinant human Bmp6 (R&D) (protein, UniProt P22004 375-513, looked up)
Bone morphogenetic protein 6: SASSRRRQQSRNRSTQSQDVARVSSASDYNSSELKTACRKHELYVSFQDLGWQDWIIAPKGYAANYCDGECSFPLNAHMNATNHAIVQTLVHLMNPEYVPKPCCAPTKLNAISVLYFDDNSNVILKKYRNMVVRACGCH
Turning to B1, the “CM induction activity (number of beating areas)” value is on record as “enhance CM induction activity”.

For the origin of these results see US8318489B2, “Prostacyclin directed differentiation of cardiomyocytes from human embryonic stem cells” (priority 2005, dated 2012).
